According to patent US7138254:

Tested on: cytochrome C

Sequence of biotin conjugated trypsin (P00760 24-246): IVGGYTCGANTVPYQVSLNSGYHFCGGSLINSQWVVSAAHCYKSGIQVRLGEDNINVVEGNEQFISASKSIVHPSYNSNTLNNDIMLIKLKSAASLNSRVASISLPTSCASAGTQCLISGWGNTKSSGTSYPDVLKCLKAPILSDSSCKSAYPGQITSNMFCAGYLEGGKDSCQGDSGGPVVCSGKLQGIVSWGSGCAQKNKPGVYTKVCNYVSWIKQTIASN
Sequence of trypsin (P00760 24-246): as above

Substance | peptide maps (capillary electrophoresis of FITC labeled digest), three runs over two weeks | peptide profiles of digested cytochrome C (capillary electrophoresis of FITC labeled digest)
trypsin | the control capillary cassette showed some protein digestion only in the first run, but no protein digestion in the second or the third run | The obtained peptide profiles of digested cytochrome C are consistent and reproducible between each run and comparable to data obtained with full volume reactions
biotin conjugated trypsin | all capillaries of the treated cassettes have the same peptide maps in the three runs | the peptide profiles of digested cytochrome C obtained from this approach and the approach described in Example 26 are consistent and reproducible
